According to patent US9234007B2, “RGD mimetic γ-AApeptides and methods of use” (UNIVERSITY OF SOUTH FLORIDA, priority 2012, dated 2016):

Key:
in vivo = assay: in vivo; set-up: species or system mice; settings: female, nude, mouse, iv, 10 mg/kg, total radioactivity
Experimental: (§1) PET scans at various time points post-injection (p.i.), as well as quantitative region-of-interest (ROI) analysis of the PET data, were performed as described previously.^14 Coronal and transaxial PET slices that contain the U87MG tumors are shown in FIG. 5A, and the quantitative data are shown in FIGS. 5B and 5C. […] PET scans were performed using an Inveon microPET/microCT rodent model scanner (Siemens Medical Solutions USA, Inc.). Each U87MG tumor-bearing mouse was injected with 5-10 MBq of the PET tracer via tail vein and 5 minute static PET scans were performed at various time points post-injection (p.i.). The images were reconstructed using a maximum a posteriori (MAP) algorithm, with no attenuation or scatter correction. For each microPET scan, three-dimensional (3D) regions-of-interest (ROIs) were drawn over the tumor and major organs by using vendor software (Inveon Research Workplace [IRW]) on decay-corrected whole-body images. Assuming a tissue density of 1 g/mL, the ROIs were converted to MBq/g using a conversion factor (pre-determined using a 20 mL centrifuge tube filled with ˜37 MBq of ^64CuCl2 as a phantom), and then divided by the total administered radioactivity to obtain an image ROI-derived percentage injected dose per gram of tissue (% ID/g).

integrin αvβ3 = assay: in vivo; set-up: species or system mice; settings: mouse, iv; for Liver uptake, blocking group / Radioactivity in the blood, blocking group / U87MG tumor uptake, blocking: 10 mg/kg
Experimental: as §1

N=C(N)NCCC(=O)N(CC(=O)NCCN(CC(N)=O)C(=O)CC(=O)O)C[C@H](Cc1ccccc1)NC(=O)CCCCCNC(=O)CN1CCN(CC(=O)O)CCN(CC(=O)O)CCN(CC(=O)O)CC1 [^64Cu-γ-AA2, metal not drawn]
tissue uptake at 0.5 h (in vivo): 0.5 ± 0.1 %ID/g
clearance route (integrin αvβ3): both hepatobiliary and renal clearance
Liver uptake, blocking group (integrin αvβ3; 0.5 h): 7.2±2.0 % ID/g
Liver uptake, blocking group (integrin αvβ3; 2 h): 6.1±1.6 % ID/g
Radioactivity in the blood, blocking group (integrin αvβ3; 2 h): 0.4±0.1 % ID/g
U87MG tumor uptake, blocking (integrin αvβ3; 2 h): 0.4±0.1 % ID/g
Liver uptake, blocking group (integrin αvβ3; 4 h): 5.3±1.3 % ID/g
Radioactivity in the blood, blocking group (integrin αvβ3; 4 h): 0.4±0.1 % ID/g
U87MG tumor uptake, blocking (integrin αvβ3; 4 h): 0.4±0.1 % ID/g
Liver uptake, blocking group (integrin αvβ3; 24 h): 4.0±0.6 % ID/g
Radioactivity in the blood, blocking group (integrin αvβ3; 24 h): 0.4±0.1 % ID/g
U87MG tumor uptake, blocking (integrin αvβ3; 24 h): 0.4±0.1 % ID/g
U87MG tumor uptake (integrin αvβ3; 0.5 h): 0.9±0.3 % ID/g
tumor/muscle ratio (integrin αvβ3; 0.5 h): 3.8±0.9
U87MG tumor uptake (integrin αvβ3; 2 h): 1.0±0.2 % ID/g
tumor/muscle ratio (integrin αvβ3; 2 h): 4.8±1.8
U87MG tumor uptake (integrin αvβ3; 4 h): 1.1±0.2 % ID/g
tumor/muscle ratio (integrin αvβ3; 4 h): 5.8±1.4
U87MG tumor uptake (integrin αvβ3; 24 h): 0.7±0.2 % ID/g
tumor/muscle ratio (integrin αvβ3; 24 h): 8.3±3.9
